Test: soluble on expression in E. coli; label from the status in PepcDB or PDB records

Row | Sequence | soluble on expression in E. coli
1 | MSAPLYMQIKQFILDKIDSGDWMVGQRIATEIELTEQFGVSRMTVNKAIRDLVNEGKLQRRPRLGTFVCDPSEKSESPLLDIRNIAEEVSDRGRQYSSKVVQQVAIKADDSIAIKLGVMLGTTVFYSEIIHYEDSTPIQLELRWVNSQYAPSYLSQDFTQITPNQYLSNNCPLSAIEHTVEAIVPDNRIKLDLKMQANEPCLLLNRRTWSQDKLVSTALLYHPGNKYKLSSKVLL | not soluble
2 | MGSDKIHHHHHHMFAPFAGETSRGEADMSGDLDQATMDRLFAKARTYSKFTKAPVSDDLLRQAWDLARMGPTSVNCQPMRVVFVRSSAAKERLKPALAPGNLDKTMAAPVTAIIAHDMEFYEQLPKLFPHADARAWFVGNEAMIQSTAFRNGTLQGAYFILALRAIGLDCGPMSGFDNAKLDEAFFKGTTLRSNFLVNIGHGDAAGLYPRGPRLDFDEACRVE | not soluble
3 | MGSDKIHHHHHHLAQLYFYYSAMNAGKSTSLLQSSYNYRERGMNTLVLTAAIDDRYGVGKVASRIGIQADATVFGSEDNLMDLIATHHSQQQLHCVLVDESQFLSKTQVRQLTDVVDKLDIPVLCYGLRSDFRGELFIGSQYLLAWADKLVELKTICFCGRKANMVVRRDGAGNPVRDGAQVAIGGNESYESMCRKHFSELVWD | not soluble
4 | STAREQPIFSTRAHVFQIDPATKRNWIPAGKHALTVSYFYDATRNVYRIISIGGAKAIINSTVTPNMTFTKTSQKFGQWADSRANTVYGLGFASEQHLTQFAEKFQEVKEAARLARE | soluble
5 | MGSDKIHHHHHHMKLPTNSILISLKIGIVSDGQYGERAFEQIRRRFPTEWILLPYPSSPVVDEIELTIPPCDLYISYLRHPDIAMELIRTGIPALLGINLGPGFIAQAHEFNPAVIGPETMCSVLPNTKFCQVNEYAKVFGRPVFYLVMDGDRIVWCKTIRGSPCGSTDAAASEISGQILDQEALSRFALSICHNCRAPRFGKTCDKEKAGIIHLEELMRALKGVNPKKWEELIQVLEKIGCSFPNE | not soluble
6 | MSLKFMYSALLGNPVEHSISDELFEYLNHNIGVLDEYKHKKILVDSVCLEDKIKHLINDPKCIGLNITLPYKREVMRYIDNLDRVAEITGSVNNIYKSGNIITGTNTDWKGIYNTLVFFNISHITKCCVLGTGGTARAAIFALQKLQISPTVVYREPISENTRSLIKSFPDLKYITYKELADQQILNDMEIIINTTPVGMINYEESLPINFDHLDNVNYKDKYFMDVVFNPLHTKLHEYFGKKGAKIIDGLWVLIFQGIEAFSLWSDKINDGKYFFSKDDVVLIHTFLEGKIKGKEGHHHHHH | soluble
7 | MFHLVDFQVTIAEILIIIMRTFRIAIWNLDVIISSIVRQLFKPLTKKNYSELDDEEPMELDYP | soluble
8 | MAHHHHHHMQGTGSAKSFLEKLKSGRTTSAAIDNNAPPDGDGVILRRVERQYASEPLSALGLKLTEDAEVLSTEVGSPAAKSNIPLHYMIIAVNNQFVGSRADFEDIAAQLLTLVIKLQSTAAMSELLANILNEEEKNFNENGDSCIDVNELLRTTPRYGFLSAEHPMFLRWNQRLQTQREARQLIRQATREAEEQQAKEALEALRRVADAEDEIQQQQAQQERQHQQMLRQGPETVNPSAPEAGARPGGEVLLKQVQDESTFGESNVNNEGFEESPEEASPEELLKLIGAEPVETEVVQHVDADEPTEVRFFINPTEEYALSNGTRVTISVKKRSGPIPKPPPGKPPKGIEKADDKQAQ | not soluble
9 | MSAYKQANRLIHEKSPYLLQHAYNPVDWYPWCDEAFEKAKRENKPIFLSIGYSTCHWCHVMESESFEDEEVAEILNKNFVSIKVDREERPDIDSIYMTACQALTGHGGWPLTIIMTPDKKPFFAGTYFPKKDRMGMPGLISILKSVHNTWVNEKDSLAKYSSKVVSVISESIDDDYYYSVDEITEDIFEDAFSQFKYDFDNIYGGFGNAPKFPMPHNLYFLLRYWHKAKEEYALVMVEKTLDSMYSGGIYDHIGFGFCRYSTDEKWLVPHFEKMLYDNALLAIAYLETYQATKNKKYADIAKEIFTYVLRDMTSPEGGFYSAEDADSEGEEGKFYIWSPTEIKEVLGESDGEKFCKYYNITEEGNFEGLNIPNLINSTIPDEDKEFVELCRKKLFDHREKRVHPHKDDKILTAWNGLMIAALAIGGRVLGIEKYTLAAEKASEFIFSKLVRPDGRLLARYRDGEAAFLAYLDDYAFLIWALIELYETTYKPMYLKKAMELTNDMIKYFWDNKKGGLFIYGSDSEQLITRPKEIYDGAIPSGNSVAALNFLRLSRLTGQQELEEKAHQMFALFGSKIDSMPQGYAFFLTAMLFSKSKSNEVVLVGSNEKDTQNMLSILSEDFRPFTTSILYSEEHKDLKELIPFIDNYTTIENKPTAYVCENFVCHEPITDGALLREKLNR | soluble
10 | SAATMKKAAAEDVNVTFEDQQKINKFARNTSRITELKEEIEVKKKQLQNLEDACDDIMLADDDCLMIPYQIGDVFISHSQEETQEMLEEAKKNLQEEIDALESRVESIQRVLADLKVQLYAKFGSNINLEADES | soluble
11 | EAIGASVIPMSAGNTEKQIMIMQDYKTTALVCTPSYAITIADRMEKMGVDPKSLSLKVGLFGAEPWSEAMRKEIENRLFVSATDNYGLSEIIGPGVAGDCEYKCGMHIS | not soluble
12 | MAHHHHHHMLSEEEQATLLKYYSTVKLHETQMDQLAQAYWAATREERGEIAKVYAHTFVDPTFVQRLIFFHDYRMSLTAAGAGLSSSTGAAVGTGSSFAGQQSGSESANSPLMAGPPSSFMAESPTTAANHAPRRTHAQHLLRSTIQEHFPKLTGPGPYALQFGCVQSEKEREEVIELYSSQFLHPDPPELHRIVALPSSFSTRTRKRISGSYSWYLRCLATQELVCAVTVTVHQQETIRFAEMPLFATGVGYKKNGFGRLLNAALLAWCAEVGLEFIMISADVQAIPFWRHLGYRAMTRGEKNRIDFFYQHDCCKFKGAETMIGYCNVDRGNGSLSGGVGRRAFHSGGSTEVLHRSVRQVLAQLPRFVVEGPAKLPTE | soluble
13 | MFKRVLIANRGEIAVRAIRACRELGLKTVAIYSEADKNSLHVELADEAICIGPPDPSKSYLDIPRIMSALEVSKADAVYPGYGFLSENPKFAEIVEKSGAKFIGPRSEVLAKIGDKVLAKKVAKEVGLPLVPGSDEPLEFSEAVKLASKIGYPVVIKAAAGGGGRGIRIIRDEKELREKFPLAKKEAESAFGDGRLYIEKYVINPKHIEFQVIADEHGNVYVLGERECSIQRRHQKLIEEAPSVSVSEEKRKEISEKVAEFCKRLGYTSAGTVEFLMDEEGNFYFMEMNGRIQVEHPVTEMVTGVDIVKLQLIAAMGEEIKLEKVETNGFAIEFRINAEDPVTFIPSPGQVEKLILPGGPGVRVDTHLYQGYTVPPYYDSLLAKIIVWGNTRQEAIARGKRALGELKIEGKGLKVNTEFHLRVLDQKEFIEGKHDITFVERIMV | soluble
14 | MGSDKIHHHHHHMLESNPPKSLYRETAGGIGDYCALAGAQRARVAIVGGGFTGLSTALHLAEAGDDVAVLEAQQPGWGASGRNGGQVNPGLKYDPDTIEAMFGPELGPRMIDFSYGAPDFTFGLIKRLSIACDARQNGTIRAAIRPKPQAAVRTTAAQCQRRGMPVSMVDAQAMATRTGTGRYIAGMFDARGGDLHPLKYTIGLAAAARNASARIFGGSEVLSLKREAGRWVLKTANGSVSAEKVLVATNGYTGALWPGLEQSLVPVFSAIAATEPLAPAAAAQILPDRPVLYEAGNITVYYRIDAQNRLLMGGRGPMKPIGDASAIRYLTDYALRLWPALAGVRWTHGWNGRVAITKDHLLHIHEPEDGVLICLGYNGRGVAMASAMGAALAQRLQGRETSPFPMPISPLKPIRFHRFWPLGVKAAILSGRLKDRFGL | not soluble
15 | MHQVISATTNPAKIQAILQAFEEIFGEGSCHITPVAVESGVPEQPFGSEETRAGARNRVDNARRLHPQADFWVAIEAGIDDDATFSWVVIDNGVQRGEARSATLPLPAVILDRVRQGEALGPVMSQYTGIDEIGRKEGAIGVFTAGKLTRSSVYYQAVILALSPFHNAVYR | soluble
16 | MGSDKIHHHHHHMKKKLKIGISACVMGEPVRFDRGHKKSGFCMEQLAEFAEFKPVCPEMAIGLPVPRPTIRQIVRDNIITVSRPDGSGDVTQALKEFGAKAALNYQELAGFVFCAKSPSCGMERVKVYHHHGKGSESTGVGIFAEQVMKANPLLPCEENGRLNDPIIRENFTTRIFTYQKWLDLKAEGLTRHKLIQFHSAHKYLVMSHHVESYRELGRLLGRADIGLEEQSERYISGLMQALKHKASRRSHTNTLQHLQGYFKRQLDEHKRRELTQEIAAYREGLSPLLVPLTLIKHYLIEFPNEYLLQQAYLNPHPKELRLRYGY | not soluble
17 | MGHHHHHHSHMTITSGSSLPDGCEGRGLSVHTDMASVTKAMAAPESGLEVRDRMWLKITIPNAFLGSDVVDWLYHHVEGFPERREARKYASGLLKAGLIRHTVNKITFSEQCYYVFGDLSGGC | soluble
18 | MSLNKKVVIGMSGGVDSSVAAYLLKEQGYDVIGVTMKLTPDDAFYTEQEGGCCSLSAVEDARRVAYRIGIPFYVVNFTDIFKEKVIDYFTEEYLNGKTPNPCIACNKYIKFDALLKKAESLGADYIATGHYCRIVEENGRYVIRKSEDEKKDQTYVMYNMTQDQLKHTLMPCGDYKKDRIREIAREIGLNVFDKKDSEEICFIPDNDHGGFIKRECPKAVKTGNFVDKEGKVLGKHKGIIYYTIGQRKGLGIATGKRVFVTNIDAMKNQVVIGEEEEIFENELISFKNNFIPFDKLTEPMEVDAKIRYNAKASKATIYPVDDENVKVKFEKPQRAITKGQSVVFYDGDLLVGGGIIKEGHHHHHH | not soluble
19 | QTVQSTSKGSDYIVAVTACTTGIAHTYMAEEALKKKAAEMGVGIKVETNGASGVGNKLTSSDIARAKGVIIAADKAVEMDRFDGKPLVSRPVADGIKKSEDLINIILDNKAQTY | not soluble
20 | MGSDKIHHHHHHMKDSFRTIYNGASVPLAEIPPVDINEFLQGILDSVDRGWRIVSYFGIPAPSSTALVCILANKAEGRLAAARTETSDSHVPSLSSLITQVQLFEREIAEQCGLIFDGHPWFKPVRFHHSFVPGRDAWDRTADEPLRVGVMDYYQVAGDEVHEVAVGPVHAGIIEPGHFRFQCHGEEVFHLEISLGYQHRGIEAGLAGGPHPRTLQVMETAAGDTTIGHGQAYCMIMESLGGIKAPPRAEVLRGIALELERLANHTGDLGAIAGDVGYLPTSSFCGRIRGDFLNMTAVLCGSRFGRGLLVPGGTIFDLTPGLRDDLLKRLAEARRDLTNAIELLWSSPSVMGRLEGTGTLTREQALELGLVGPAARACGIKRDVRLDYPFGIYRMTHLPVATVFHGDVCARTMIRWLEAQKSMDFIEEQLRQLPGGGHRVATAPCAGGRLAVALTEGWRGEICHVAVTDDAGRFSRYKIVDPSFHNWQGLALALRGQQISDFPLCNKSFNLSYCGFDL | not soluble
21 | MAHHHHHHMHRFRVCALGAAFCVARRWRSGGGPGDRRVRTDWYRCYPSLMEEKDRDMYHCYYPYLFDHGDKMSLYPKIPDNPREWQVEQLQTTYDAIREDKYDAFVRLRAKFPELYQDTYAWDNPPPFGEFNMFYSVRFGMIGVKAFTCKDYDDLGNQFDCTAFWFPDNQIVKHSTRNGDVGTDKVYVGAMNVPVEFHKPHVAAFYKAAGVPVKHVSAGFPVTPDAYAPVGTKLDVRHFKPGQEVTITFQNTDYGYQGVMFRHGFDGGYVWLGDSKWQRRPGCMGAEGQKRIYPGHRMAGQTGASAETYDGVPVWRIDYKNSLIYLPTLIDADVGTYVKFRDTINTKGYTLWNEHRGTPPFPTFIPSEEEDLSKLATDEGQLTSPPLYMYFRDEFAAAQLVTQADVEDAKSAKPATAAPKKKVYDLKKYTEARKKYRKNLQKARKYKLMGVRTRAHEKQQEARRAKILKYKRVKT | not soluble
22 | SMKLKSNQTRTYDGDGYKKRAACLCFRNDTEQEVLLVSSSRHPDKWIVPGGGMEPEEEPNVAAAREVCEEAGVKGTLGRLVGIFENRDRKHRTYVYVLIVTEVLEDWEDSVNIGRKREWFKIDDAIQVLQCHKPVQASYFTALQEGCLNSNGTPLVATIGGGDLSPTYSINQSSVSDMR | soluble
